The DeepSol protein solubility set

Assay: soluble on expression in E. coli; label from the status in PepcDB or PDB records

**Q.** Which “soluble on expression in E. coli” value does the source give for “MKILILGGRFGGLQTAYDLRRYLKNKADIKIIEKNRYIYFRPALPHVGIGLERAEDLRIDLAQVLPDRGIGYIQGTVTKIDPERSLVEYSREGSGGYKEKYDFLVIALGAHLASELIAGFDKYGSSVCEADLAENMWKKLRDFKGGNITLGSAKFIQDTKNRPTNTPDRYAPIADSACEGPVFEMSIMLYDYFKARNMLDKVKMTVYSPGEYLSDLSRTSRSTVAAMYKGMNIELVDNFVVKEVTEKEVISEDGRRLPSDISFILPPYTGQKLVKDAGLGDDVGFVLTGTDMKSVKYDNVYAVGDVNALIVPKMAFLAVKTARIVAANIANRLGMSIPVEVYDPKIVCVADSPYGNYAVAVTDSTFYGGNVSEAIPSPANHLKKTLFTRYFLWSKGDLAMDKYLTSWLEHHHHHH” here?
**A.** not soluble

**Q.** For “MKILKKIFQVIVKIINHCVPVDSRSLYFIPHPNCRTDKYDIINYSSDNVLVLLNYLLKKDSAEYYKIYVEIYDSSRISEYQEYIYGINPNIRCTFLCACVGRFFFNKVSFKDMLYAFFCFCRASKCFTATFYYDFSFKKRSQQIICLGYYTPFKDDYHMGDHSYDKFRNTTCNSFDYSIATSCLSARIISIDCGISYDKFKVLGFPRNDLLISKNNCNVIKREISKFAGYDVTKYIVYTPTFRDYETVTEGNLRSILGYVDCDLLKLSKILLKFNAALILKLHPLQNKTVLKKDLPKGILVFEQTYKYGLYDLLSFSDGMITDYTSTYFDFLLVNKPVIFNFYDIEEYRRVRGFSFEPIEFFCAGDIVYNYNELIDAVMGLLAGKDIHAEHRRHISLLMNQFQDDNSTKRICDIFLNEILEHHHHHH”, which “soluble on expression in E. coli” value is on record?
**A.** not soluble

**Q.** With “MKINSPLEAYKYLPQTNCGECGQPTCMAFASTLIDRSGKTTDCPPLIKEKKFAKKLAELDRLLAPEIRQVTIGVGERAANIGGDDVLYRHKLTFFNKTKMFFDVADNMDEAAIVERVKKISDYKKFYVGRNLLLDGVAIRAASNDPAKFATAVKKVIENTELPVILCSFNPAVLKAGLEVAKGKNPLLYAANKDNWKEVGELALEYNVPVVVSAFNDLDGLKTLAKTFAEAGIKDIVLDPGTYPTGKGLKDTFTNFLKIRRAGIMGDTEIAYPIMAMPLTAWMAGIADPVSASYWETVLASIFTIRYGDIMLLHSMEPYATMPEVHLAETIYTDPRSPVAVDSKMYKVGNPTADSPVLFTTNFALTYYTVESDLASNGIDCWLLAVNTDGIGVEAAAAGGQLTADKVKDAFEKSGFDLKSDVTHNSVVIPGLAARLQGDIEDKLNVKVMVGPMDSGRLPGWMEKNWPPKK” as the sequence, how does the “soluble on expression in E. coli” value read?
**A.** not soluble

**Q.** With “MKIRSPIVSVLGHVDHGKTTLLDHIRGSAVASREAGGITQHIGATEIPMDVIEGICGDFLKKFSIRETLPGLFFIDTPGHEAFTTLRKRGGALADLAILIVDINEGFKPQTQEALNILRMYRTPFVVAANKIDRIHGWRVHEGRPFMETFSKQDIQVQQKLDTKVYELVGKLHEEGFESERFDRVTDFASQVSIIPISAITGEGIPELLTMLMGLAQQYLREQLKIEEDSPARGTILEVKEETGLGMTIDAVIYDGILRKDDTIAMMTSKDVISTRIRSLLKPRPLEEMRESRKKFQKVDEVVAAAGIKIVAPGIDDVMAGSPLRVVTDPEKVREEILSEIEDIKIDTDEAGVVVKADTLGSLEAVVKILRDMYVPIKVADIGDVSRRDVVNAGIALQEDRVYGAIIAFNVKVIPSAAQELKNSDIKLFQGNVIYRLMEEYEEWVRGIEEEKKKKWMEAIIKPASIRLIPKLVFRQSKPAIGGVEVLTGVIRQGYPLMNDDGETVGTVESMQDKGENLKSASRGQKVAMAIKDAVYGKTIHEGDTLYVDIPENHYHILKEQLSGDLTDEELDLMDKIAEIKRKKNPDWGMKAPF” as the sequence, how does the “soluble on expression in E. coli” value read?
**A.** soluble

**Q.** Which “soluble on expression in E. coli” value does the source give for “MKIYLVGGAVRDALLGLPVKDKDWVVVGATPQEMLDAGYQQVGRDFPVFLHPQTHEEYALARTERKSGSGYTGFTCYAAPDVTLEADLQRRDLTINALARDDAGQIIDPYHGRRDLEARLLRHVSPAFGEDPLRVLRVARFAARYAHLSFRIADETLALMREMTAAGELEHLTPERVWKETENALTTRNPQVYFQVLRDCGALRVLFPEIDALFGVPAPAKWHPEIDTGVHTLMTLSMAAMLSPQLDVRFATLCHDLGKGLTPKNLWPRHHGHGPAGVKLVEQLCQRLRVPNDLRDLAKLVAEYHDLIHTFPILQPKTIVKLFDAIDAWRKPQRVEQIALTSEADVRGRTGFEASDYPQGRWLREAWQVAQAVPTKEVVEAGFKGIEIREELTKRRIAAVANWKEKRCPNPAS” here?
**A.** not soluble

**Q.** With “MKKAVVVFSGGQDSTTCLVQALKEFDEVHAITFDYGQRHKLEIEVAQKIAKDLGVKAHKVMDVGLLNELAISSLTRDDIPVSHELQENGLPNSFVPGRNILFLTLAGIYAYQIGADTVITGVCETDFSGYPDCRDDFVKSMNTALVKGMDRALTIKTPLMWLNKAETWALADQYNALQLVRENTLTCYNGIIGDGCGDCPSCDLRKAGLDEYLNNKDAVMKSLVQKQESEGL” as the sequence, how does the “soluble on expression in E. coli” value read?
**A.** not soluble

**Q.** With “MKKFFRFQLCCICLLVLIVSACKVKRPDSVISESEMENLLYDYHIAKAMGENMPGGENYKKALYVEAVFKKYGTTEEVFDSSMVWYTRNTKILSEIYEKVNKRLKAQQNAINHLIALRDNKPKMSAPGDSINVWAWQRIAQLTEAPLNNKFTFTLPSDTNFKKRDVLLWKMQYNFLSEIPDSTMAPIMAMQIVYENDTVTHSCVKHIFKSGIQNIRLQSDTMNIKEIKGFIFCPLSEESITLLVSDISLTRYHANDSITQISKDSLKTDSIKEKSKNDSIQKKTPKDTIQASSSHQRTNPNDLNRPNNDVRPIKPEQREKEMQIEKEKQQLERQQRTNPRRPLRRQNN” as the sequence, how does the “soluble on expression in E. coli” value read?
**A.** not soluble

**Q.** Which “soluble on expression in E. coli” value does the source give for “MKKGHHHHHHGSQYNPQVADLKAFSKHIYNAYLKNFNMTKKKARSILTGKASHTAPFVIHDIETLWQAEKGLVWKQLVNGLPPYKEISVHVFYRCQCTTVETVRELTEFAKSIPSFSSLFLNDQVTLLKYGVHEAIFAMLASIVNKDGLLVANGSGFVTREFLRSLRKPFSDIIEPKFEFAVKFNALELDDSDLALFIAAIILCGDRPGLMNVPRVEAIQDTILRALEFHLQANHPDAQYLFPKLLQKMADLRQLVTEHAQMMQRIKKTETETSLHPLLQEIYKDMY” here?
**A.** soluble

**Q.** Which “soluble on expression in E. coli” value does the source give for “MKKIALAVLSLGLLVSGCSAGADKDEKVAEKSGKAKEQSVVPKYAISDEYYKTTIPFDGGNARGLVVQGLNSRLDIDEFETGLMRIAKESFSTKDNFLKGGKALDTQTIQMLVKRKRTDAEQKELEDKLKKDAVKFPNIGLNPALGTGSESLEVKNKKNPIYISNILEHDYYVKKGDNGEERVGMVVGLAMNSVQYFNEEHGYPREAAIPDEKMLAEGKKMAQEILKVIHQKEPETKNIPITFAIYRQAPKSSLVPGNFVSYANVEKGSETVEDWQQINEKYYLFPSEQAKTDNKREDLARVSNFKAKLSDYFQGDYTAVIGTGMYRDDELREMKLDIPVQFNGKAEIVGFTQYVAGLVMEYFPNYMKVQVTIKSVERPEAIIIREAKQDEPLVKILD” here?
**A.** not soluble

**Q.** Which “soluble on expression in E. coli” value does the source give for “MKKIDSAVAVEPAATVPKGRKNNPEKTREDILKAAVAEFVAHGLTGARVDAIAERTKTSKRMIYYYFGSKEQLYVEVLEKLYGAIRNTESELNLGELEPVEAIHRVVEFTFDHHDSNVDFVRIVCIENIHNGENVKQSDTIQAKSQNIIRALDGILRRGEASGLFRDGVHPVDLHLMISSFCFYRISNRHTFSEIFQIELWSEEVKQRHKAMICDAVLRYLKR” here?
**A.** not soluble

**Q.** With “MKKIILVAALLSAAVCLPAQNKGGNKSGGINLSLWKKACTQPLDSTQTTYVNLGLFSAMHKLHGVGFNAFGSMVQNNMNGVQISGLANLAGGSMHGVQIGGISNVNGNNLAGLSVSGLVNITGNKAKGVLITGLSNIAGDNMRGLMMSGIMNITGDKAAGVQLAGLANVTGEEYDGLMMSGLLNVVGEEMNGLQLSGLANVTGGQMNGVQLGLFNFASKAKGLQIGLFNYHKEDMKGLQLGLVNANPQTKVQLMVFGGNSTKINVGARFKNKLFYTILGGGTHYLDFDDKFSAALFYRAGLELPLYRNLFVSGDLGYQHIETFRNKKVEGIPARLYALQARLNLEYRFTDKFGLFVTGGYGGSRYYNKARTYDKGVIAEAGVVLFMAGDPLEHHHHHH” as the sequence, how does the “soluble on expression in E. coli” value read?
**A.** not soluble

**Q.** Which “soluble on expression in E. coli” value does the source give for “MKKIMILVAVISFFSFSDDIKIDRAVKESITKDFDQDGKYSAYEKALRKAQESIYVTLPEHRGYWYSTLDKIKAEEEELLPDETARMRRR” here?
**A.** not soluble

**Q.** Which “soluble on expression in E. coli” value does the source give for “MKKIVFLLLLCVACCMNAQEFHLIPKVGLNLANTTGEVDSKVRPGLNIGLGGDVMLTERFGIETGVYYSMQGSKYKGGGVSYTDKLDYINVPVYAKEFIYKGLYVFGGPQFSFNVNSENKSSSDYGTTVIGMNVIRKFDCGVGLGAGYQFERGLLISLNYNIGLINVNKSWASDSNPKANNSVVQLNVGWRFAL” here?
**A.** not soluble

**Q.** For “MKKKLLAGAITLLSVATLAACSKGSEGADLISMKGDVITEHQFYEQVKSNPSAQQVLLNMTIQKVFEKQYGSELDDKEVDDTIAEEKKQYGENYQRVLSQAGMTLETRKAQIRTSKLVELAVKKVAEAELTDEAYKKAFDEYTPDVTAQIIRLNNEDKAKEVLEKAKAEGADFAQLAKDNSTDEKTKENGGEITFDSASTEVPEQVKKAAFALDVDGVSDVITATGTQAYSSQYYIVKLTKKTEKSSNIDDYKEKLKTVILTQKQNDSTFVQSIIGKELQAANIKVKDQAFQNIFTQYIGGGDSSSSSSTSNE”, which “soluble on expression in E. coli” value is on record?
**A.** soluble

**Q.** With “MKKKLTGVALVLAAVSLMGIQPAGACTRAVYLGPDRMVVTGRTMDWKEDIMSNIYVFPRGMQRAGHNKEKTVNWTSKYGSVIATGYDIGTCDGMNEKGLVASLLFLPESVYSLPGDTRPAMGISIWTQYVLDNFATVREAVDEMKKETFRIDAPRMPNGGPESTLHMAITDETGNTAVIEYLDGKLSIHEGKEYQVMTNSPRYELQLAVNDYWKEVGGLQMLPGTNRSSDRFVRASFYIHAIPQTADAKIAVPSVLSVMRNVSVPFGINTPEKPHISSTRWRSVSDQKNKVYYFESTLTPNLFWLDLKKIDFSPKAGVKKLSLTKGEIYAGDAVKDLKDSQSFTFLFETPVM” as the sequence, how does the “soluble on expression in E. coli” value read?
**A.** soluble

**Q.** For “MKKKMMTVFTIGVMSLSILGGASPSETQKGKTDYTQRSKEQLNNGKIHAVHTEEKAEKLGIETEGKEQITLEKEIHETEVGREAEQLGISIEGKDVGMLSEEIYETKVKQEALKLGISIENTSIVDLITQINAIKIKDEADKLGISTDGKEIEDIAEEIYGKKVREEAGKLDISQKGKEIEELAQEVYEQKVQEEAKKHHIDLYGKDIYQILREINEQKVLQMADELNMDKMNMNIQELAEKIKKDQPEKGKELNFVPMVRTDADAFYSYLTNLEHHHHHH”, which “soluble on expression in E. coli” value is on record?
**A.** not soluble

**Q.** For “MKKLIVASLSLTFMLGGCASMNKEGVGTITGGVVGGLLGSQFGGGSGKVAAAGAGALLGAYLGGQIGKTMDKVDRLEMQRALETAPTGKAVAWSNPDTGYRYTVQPTRTYYNAQQPCREYITKAMIGGKTQQIYGKACRQADGSWRVVNLEHHHHHH”, which “soluble on expression in E. coli” value is on record?
**A.** not soluble

**Q.** Which “soluble on expression in E. coli” value does the source give for “MKKLLFFILILFGVLSVQSLANGCSAQICTCPGGGYVTTGQYCPVYNNNTPSQPVLTKWYAFSYDKNKNIYGVGTGYDKKTAQNEALKNCGTSECKIEKSQKIPGGISLAAVSSNGVMVTYSSFGSSTWEQYEKRIDNLIKKCKAKGGSNCKLVFDSAYLYRKDKNLGY” here?
**A.** not soluble

**Q.** Which “soluble on expression in E. coli” value does the source give for “MKKMNHVLQVLMLSASLVASPFTYANEEKGLEIAQERKARDEGWGDSIATMEMILKNAQGESSTRLMRLKSLEVEGDGDKGLTIFDQPRDVTGTAFLNHSHTIGADDQWLYLPALKRVKRISSRNKSGPFMGSEFAYEDLSSFEIEKYRFNHLKDEKFNGQDVFVLEQIPTDKNSGYTKQVVWLDKAHYRPLKVEFYDRKGALLKTLTFANYKQYLDKYWRAHTMAMTNHQTGKSTELNTSDLRFQTGLEENDFNKNVLKRVK” here?
**A.** not soluble

**Q.** For “MKKNMLRIMATVTIMGGLFVSTNVPNVKAEEYPEMIVFDDVPVNHWAYDDIMDVVYNKVMLGYGNGKFGVGDNVTREQVAAVLYRTLNLKKEGPLKNPYKDISERATFFLDEILVLTKHGIFEGDEKGNFRPAAPVTRAETAQILTKAFTFEVKKNHTFKDVPNNHWAKNAISALQSNHVIVGTGNGKFEPNKVVTREQYATFLNKAVFYFPVKDENYE”, which “soluble on expression in E. coli” value is on record?
**A.** not soluble
